Source: US20200308244A1 (ORIONIS BIOSCIENCES, published 2020)
Where two headings read alike, the source gives them in different places.

What was measured:
Experiment in all cases: cell-based or functional assay
[1] = molecular target: T1, type I interferon-α/β receptor (IFNAR), composed of the IFNAR1 and IFNAR2 subunits (human) (UniProt P17181)
T1 sequence (looked up) 1: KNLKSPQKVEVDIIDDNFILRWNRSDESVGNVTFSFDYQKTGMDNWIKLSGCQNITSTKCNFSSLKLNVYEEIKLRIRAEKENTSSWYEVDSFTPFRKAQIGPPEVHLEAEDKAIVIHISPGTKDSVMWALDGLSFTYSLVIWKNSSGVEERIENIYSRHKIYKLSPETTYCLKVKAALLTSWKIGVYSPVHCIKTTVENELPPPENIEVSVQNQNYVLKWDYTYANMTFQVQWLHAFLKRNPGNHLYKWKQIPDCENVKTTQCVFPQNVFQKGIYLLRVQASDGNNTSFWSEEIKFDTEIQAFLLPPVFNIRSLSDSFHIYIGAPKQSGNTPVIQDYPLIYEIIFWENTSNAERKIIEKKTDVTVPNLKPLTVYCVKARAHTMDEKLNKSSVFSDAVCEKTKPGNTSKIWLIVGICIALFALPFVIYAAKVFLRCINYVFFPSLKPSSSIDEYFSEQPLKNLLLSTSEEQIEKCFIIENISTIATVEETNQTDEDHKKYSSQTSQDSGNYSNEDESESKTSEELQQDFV
T1 sequence (looked up) 2: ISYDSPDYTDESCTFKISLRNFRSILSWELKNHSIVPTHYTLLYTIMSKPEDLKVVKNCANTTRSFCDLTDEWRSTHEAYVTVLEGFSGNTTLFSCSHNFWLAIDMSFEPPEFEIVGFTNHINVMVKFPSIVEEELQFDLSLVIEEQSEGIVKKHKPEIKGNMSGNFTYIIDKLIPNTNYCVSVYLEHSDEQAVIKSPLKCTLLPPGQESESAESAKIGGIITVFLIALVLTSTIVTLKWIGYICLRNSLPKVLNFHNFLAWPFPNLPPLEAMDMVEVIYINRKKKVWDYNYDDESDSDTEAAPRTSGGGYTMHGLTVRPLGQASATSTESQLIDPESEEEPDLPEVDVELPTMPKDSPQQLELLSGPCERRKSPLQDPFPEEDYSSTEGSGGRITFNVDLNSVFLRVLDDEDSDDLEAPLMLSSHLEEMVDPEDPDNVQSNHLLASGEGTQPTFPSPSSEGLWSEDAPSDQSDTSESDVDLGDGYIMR

[2] = molecular target: T1, type I interferon-α/β receptor (IFNAR), composed of the IFNAR1 and IFNAR2 subunits (human); remark: listed apart in the source
[3] = molecular target: T2, type I interferon-α/β receptor (IFNAR), composed of the IFNAR1 and IFNAR2 subunits (human, UniProt P17181 28-557; P48551 27-515)
T2 sequence (looked up) 1: T1 sequence (looked up) 1
T2 sequence (looked up) 2: T1 sequence (looked up) 2

With “wild type IFNα2a (Example 7) (from UniProt P01563 24-188) (ligand)” the EC50 6-16 reporter activity, HL116 [1] was 0.008 nM and the EC50 6-16 reporter activity, HL116-CLEC9A [1] was 0.006 nM.

B1: wild type interferon alpha 1 (IFNα1) (ligand)
chain: CDLPETHSLDNRRTLMLLAQMSRISPSSCLMDRHDFGFPQEEFDGNQFQKAPAISVLHELIQQIFNLFTTKDSSAAWDEDLLDKFCTELYQQLNDLEACVMQEERVGETPLMNADSILAVKKYFRRITLYLTEKKYSPCAWEVVRAEIMRSLSLSTNLQERLRRKE
B1 showed an EC50 6-16 reporter activity, HL116 [2] of 0.105 nM, an EC50 6-16 reporter activity, HL116 (Exp 1) [2] of 2.38 ng/mL and an EC50 6-16 reporter activity, HL116-CLEC9A [2] of 0.084 nM. It also gave an EC50 6-16 reporter activity, HL116-huCD20 (Exp 1) [2] of 3.25 ng/mL, an EC50 of luciferase (6-16 reporter) induction in HL116-CLEC9A cells [2] of 1.6 ng/mL and an EC50 of luciferase (6-16 reporter) induction in parental HL116 cells [2] of 2 ng/mL. The EC50 pSTAT1 in PBMC's, CD20 negative (Exp 1) [2] was 7.51 ng/ml, the EC50 pSTAT1 in PBMC's, CD20 negative (Exp 2) [2] was 6.77 ng/ml and the EC50 pSTAT1 in PBMC's, CD20 positive (Exp 1) [2] was 3.97 ng/ml. It also gave an EC50 pSTAT1 in PBMC's, CD20 positive (Exp 2) [2] of 2.72 ng/ml, a fold decrease in potency in 6-16 reporter induction relative to IFNα2 [2] of 10 to 15 fold and a ratio CD20 neg/pos of EC50 6-16 reporter activity (Exp 1) [2] of 0.7. The ratio CD20 neg/pos of EC50 pSTAT1 in PBMC's (Exp 1) [2] was 2, the ratio CD20 neg/pos of EC50 pSTAT1 in PBMC's (Exp 2) [2] was 2.5 and the ratio of EC50 6-16 reporter activity, HL116 / HL116-CLEC9A [2] was 1.2.

B2: CD20 VHH-(GGS)20-hIFNα1-His6 (other)
chain: QVQLQESGGGLAQAGGSLRLSCAASGRTFSMGWFRQAPGKEREFVAAITYSGGSPYYASSVRGRFTISRDNAKNTVYLQMNSLKPEDTAVYYCAANPTYGSDWNAENWGQGTQVTVSSVDGGSGGSGGSGGSGGSGGSRSGGSGGSGGSGGSGGSGGSGGSGGSGGSGGSGGSGGSGGSAAACDLPETHSLDNRRTLMLLAQMSRISPSSCLMDRHDFGFPQEEFDGNQFQKAPAISVLHELIQQIFNLFTTKDSSAAWDEDLLDKFCTELYQQLNDLEACVMQEERVGETPLMNADSILAVKKYFRRITLYLTEKKYSPCAWEVVRAEIMRSLSLSTNLQERLRRKELEHHHHHH
For B2, the “EC50 6-16 reporter activity, HL116-huCD20 (Exp 1)” value [3] was 0.0241 ng/mL, the “EC50 pSTAT1 in PBMC's, CD20 positive (Exp 1)” value [3] was 0.114 ng/ml and the “EC50 pSTAT1 in PBMC's, CD20 positive (Exp 2)” value [3] was 0.085 ng/ml.
